The experiment deals with Hsp82p (Saccharomyces cerevisiae Hsp90), N terminal 6xHis tag (Saccharomyces cerevisiae) (UniProt P02829).
Chain of Hsp82p (Saccharomyces cerevisiae Hsp90), N terminal 6xHis tag (Saccharomyces cerevisiae) (P02829 whole entry): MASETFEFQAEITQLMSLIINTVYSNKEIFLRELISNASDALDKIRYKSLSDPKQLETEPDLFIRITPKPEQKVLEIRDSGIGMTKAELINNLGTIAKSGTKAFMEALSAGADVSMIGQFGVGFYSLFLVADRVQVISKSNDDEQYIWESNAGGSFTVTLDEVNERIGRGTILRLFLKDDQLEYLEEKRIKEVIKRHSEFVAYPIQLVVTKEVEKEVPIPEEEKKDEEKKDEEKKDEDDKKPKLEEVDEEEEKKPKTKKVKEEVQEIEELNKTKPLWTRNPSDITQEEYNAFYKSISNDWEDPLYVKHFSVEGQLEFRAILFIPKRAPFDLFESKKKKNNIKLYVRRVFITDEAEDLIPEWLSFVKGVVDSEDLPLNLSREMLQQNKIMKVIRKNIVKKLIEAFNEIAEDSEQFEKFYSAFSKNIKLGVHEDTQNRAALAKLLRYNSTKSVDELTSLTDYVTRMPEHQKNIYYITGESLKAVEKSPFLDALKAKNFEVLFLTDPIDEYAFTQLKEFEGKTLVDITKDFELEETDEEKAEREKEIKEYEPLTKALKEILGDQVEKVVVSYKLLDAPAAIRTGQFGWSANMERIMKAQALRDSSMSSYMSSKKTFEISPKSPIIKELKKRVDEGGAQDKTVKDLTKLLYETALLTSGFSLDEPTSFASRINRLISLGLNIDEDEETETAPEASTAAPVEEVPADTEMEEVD

B1: Aha1p, C terminal 6xHis tag (natural protein)
chain: MVVNNPNNWHWVDKNCIGWAKEYFKQKLVGVEAGSVKDKKYAKIKSVSSIEGDCEVNQRKGKVISLFDLKITVLIEGHVDSKDGSALPFEGSINVPEVAFDSEASSYQFDISIFKETSELSEAKPLIRSELLPKLRQIFQQFGKDLLATHGNDIQVPESQVKSNYTRGNQKSSFTEIKDSASKPKKNALPSSTSTSAPVSSTNKVPQNGSGNSTSIYLEPTFNVPSSELYETFLDKQRILAWTRSAQFFNSGPKLETKEKFELFGGNVISELVSCEKDKKLVFHWKLKDWSAPFNSTIEMTFHESQEFHETKLQVKWTGIPVGEEDRVRANFEEYYVRSIKLTFGFGAVL
On to B1, for which the apparent affinity (Kapp) from stimulation of the Hsp82p ATPase activity by increasing co-chaperone (1 µM Hsp82p, 2 mM ATP, ATP regenerating system) was 1.24 µM.

B2: Aha1p^Δ11, C terminal 6xHis tag (domain or fragment)
chain: VDKNCIGWAKEYFKQKLVGVEAGSVKDKKYAKIKSVSSIEGDCEVNQRKGKVISLFDLKITVLIEGHVDSKDGSALPFEGSINVPEVAFDSEASSYQFDISIFKETSELSEAKPLIRSELLPKLRQIFQQFGKDLLATHGNDIQVPESQVKSNYTRGNQKSSFTEIKDSASKPKKNALPSSTSTSAPVSSTNKVPQNGSGNSTSIYLEPTFNVPSSELYETFLDKQRILAWTRSAQFFNSGPKLETKEKFELFGGNVISELVSCEKDKKLVFHWKLKDWSAPFNSTIEMTFHESQEFHETKLQVKWTGIPVGEEDRVRANFEEYYVRSIKLTFGFGAVL
For B2, the apparent affinity (Kapp) from stimulation of the Hsp82p ATPase activity by increasing co-chaperone (1 µM Hsp82p, 2 mM ATP, ATP regenerating system) was 0.44 µM.

(Values after paper PMC6426937.)
